{"source": "paper PMC3849134", "assay_in_all_cases": "radioligand binding", "key": {"[1]": {"target": "self-assembling peptide AcN-(KLDL)3-CNH2"}, "[2]": {"target": "self-assembling peptide AcN-(KLDL)3-CNH2", "remark": "listed apart in the source"}, "[3]": {"target": "self-assembling peptide AcN-(KLDL)3-CNH2", "remark": "listed apart in the source"}}, "note": "Read-outs that look alike come from different tables or passages of the source.", "data": [{"substance": "^125I-TGF-β1 (radiolabelled transforming growth factor β1) (ligand)", "values": [{"measurement": "percent of loaded released (cumulative), day 21", "setting": "[1]", "value": 44, "unit": "%"}, {"measurement": "percent of loaded retained in the hydrogel, day 21", "setting": "[1]", "value": 56, "unit": "%"}, {"measurement": "uptake ratio (concentration in gel / concentration in bath)", "setting": "[2]", "value": 85.8}, {"measurement": "percent of loaded released (cumulative), day 3", "setting": "[3]", "value": "13 to 16", "unit": "%"}, {"measurement": "percent of loaded released (cumulative), day 7", "setting": "[3]", "value": 25, "unit": "%"}, {"measurement": "percent of loaded released (cumulative), day 14", "setting": "[3]", "value": 27, "unit": "%"}, {"measurement": "percent of loaded released (cumulative), day 21", "setting": "[3]", "value": 32, "unit": "%"}, {"measurement": "percent of loaded retained in the hydrogel, day 21", "setting": "[3]", "value": 68, "unit": "%"}, {"measurement": "uptake ratio (concentration in gel / concentration in bath)", "setting": "[3]", "value": 18.5}]}]}
